According to paper PMC5299624 (The Journal of General Physiology, 2017):
Where a chain is given by its changes, count along the chain named. In names and notes the source's numbering stands.

B1: human NaV1.6 C-terminal domain (CTD), amino acids 1769-1926, wild type (domain or fragment)
chain: FSVATEESADPLSEDDFETFYEIWEKFDPDATQFIEYCKLADFADALEHPLRVPKPNTIELIAMDLPMVSGDRIHCLDILFAFTKRVLGDSGELDILRQQMEERFVASNPSKVSYEPITTTLRRKQEEVSAVVLQRAYRGHLARRGFICKKTTSNKLE
B2: human NaV1.2 CTD (1777-1937) H1853R (domain or fragment)
chain: ENFSVATEESAEPLSEDDFEMFYEVWEKFDPDATQFIEFAKLSDFADALDPPLLIAKPNKVQLIAMDLPMVSGDRIRCLDILFAFTKRVLGESGEMDALRIQMEERFMASNPSKVSYEPITTTLKRKQEEVSAIIIQRAYRRYLLKQKVKKVSSIYKKDKG
B3: human NaV1.2 CTD (1777-1937) R1918H (domain or fragment)
chain: B2 chain with R77H, R142H

Biological target: calmodulin (CaM) (UniProt P0DP23 1-149)
Assay: ITC

Kd | Binder
0.276 µM | B1
0.172 µM | B2
0.112 µM | B3
